Values belong to the molecule of their own block, whether it stands above or below them.
Legend:
[1] = target: p130Cas C-terminal domain (residues 645-870) (human) (UniProt P56945); assay: crystal structure
[2] = target: T1, BCAR3 C-terminal domain (residues 502-825) (human, UniProt O75815 502-825); assay: ITC
T1 sequence: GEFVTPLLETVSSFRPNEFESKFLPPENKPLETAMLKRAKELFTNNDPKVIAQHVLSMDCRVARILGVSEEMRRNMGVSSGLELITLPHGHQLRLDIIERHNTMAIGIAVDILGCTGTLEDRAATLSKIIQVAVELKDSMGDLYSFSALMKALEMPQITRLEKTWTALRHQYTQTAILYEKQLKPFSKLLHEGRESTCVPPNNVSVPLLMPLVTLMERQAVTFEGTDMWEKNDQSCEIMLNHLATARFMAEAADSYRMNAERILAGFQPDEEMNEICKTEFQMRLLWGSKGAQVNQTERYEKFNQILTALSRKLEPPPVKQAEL

stoichiometry N [1]: 1
Molecule: NSP3 C-terminal domain (residues 382-703) (domain or fragment)

Kd [2]: 30 nM
B1: p130Cas C-terminal domain (residues 645-870) (domain or fragment)
chain: SQDSPDGQYENSEGGWMEDYDYVHLQGKEEFEKTQKELLEKGSITRQGKSQLELQQLKQFERLEQEVSRPIDHDLANWTPAQPLAPGRTGGLGPSDRQLLLFYLEQCEANLTTLTNAVDAFFTAVATNQPPKIFVAHSKFVILSAHKLVFIGDTLSRQAKAADVRSQVTHYSNLLCDLLRGIVATTKAAALQYPSPSAAQDMVERVKELGHSTQQFRRVLGQLAAA

— paper PMC3230775 (Nature structural & molecular biology, 2011)
